Reference: IntAct's records for PubMed 24144979

B1: Zinc finger protein RFP (Homo sapiens), P14373 (parent)
chain: MASGSVAECLQQETTCPVCLQYFAEPMMLDCGHNICCACLARCWGTAETNVSCPQCRETFPQRHMRPNRHLANVTQLVKQLRTERPSGPGGEMGVCEKHREPLKLYCEEDQMPICVVCDRSREHRGHSVLPLEEAVEGFKEQIQNQLDHLKRVKDLKKRRRAQGEQARAELLSLTQMEREKIVWEFEQLYHSLKEHEYRLLARLEELDLAIYNSINGAITQFSCNISHLSSLIAQLEEKQQQPTRELLQDIGDTLSRAERIRIPEPWITPPDLQEKIHIFAQKCLFLTESLKQFTEKMQSDMEKIQELREAQLYSVDVTLDPDTAYPSLILSDNLRQVRYSYLQQDLPDNPERFNLFPCVLGSPCFIAGRHYWEVEVGDKAKWTIGVCEDSVCRKGGVTSAPQNGFWAVSLWYGKEYWALTSPMTALPLRTPLQRVGIFLDYDAGEVSFYNVTERCHTFTFSHATFCGPVRPYFSLSYSGGKSAAPLIICPMSGIDGFSGHVGNHGHSMETSP

Variants of: B1
Settings: with ubp7_human USP7, Q93009
ubp7_human USP7, Q93009, sequence (Q93009 whole entry, looked up): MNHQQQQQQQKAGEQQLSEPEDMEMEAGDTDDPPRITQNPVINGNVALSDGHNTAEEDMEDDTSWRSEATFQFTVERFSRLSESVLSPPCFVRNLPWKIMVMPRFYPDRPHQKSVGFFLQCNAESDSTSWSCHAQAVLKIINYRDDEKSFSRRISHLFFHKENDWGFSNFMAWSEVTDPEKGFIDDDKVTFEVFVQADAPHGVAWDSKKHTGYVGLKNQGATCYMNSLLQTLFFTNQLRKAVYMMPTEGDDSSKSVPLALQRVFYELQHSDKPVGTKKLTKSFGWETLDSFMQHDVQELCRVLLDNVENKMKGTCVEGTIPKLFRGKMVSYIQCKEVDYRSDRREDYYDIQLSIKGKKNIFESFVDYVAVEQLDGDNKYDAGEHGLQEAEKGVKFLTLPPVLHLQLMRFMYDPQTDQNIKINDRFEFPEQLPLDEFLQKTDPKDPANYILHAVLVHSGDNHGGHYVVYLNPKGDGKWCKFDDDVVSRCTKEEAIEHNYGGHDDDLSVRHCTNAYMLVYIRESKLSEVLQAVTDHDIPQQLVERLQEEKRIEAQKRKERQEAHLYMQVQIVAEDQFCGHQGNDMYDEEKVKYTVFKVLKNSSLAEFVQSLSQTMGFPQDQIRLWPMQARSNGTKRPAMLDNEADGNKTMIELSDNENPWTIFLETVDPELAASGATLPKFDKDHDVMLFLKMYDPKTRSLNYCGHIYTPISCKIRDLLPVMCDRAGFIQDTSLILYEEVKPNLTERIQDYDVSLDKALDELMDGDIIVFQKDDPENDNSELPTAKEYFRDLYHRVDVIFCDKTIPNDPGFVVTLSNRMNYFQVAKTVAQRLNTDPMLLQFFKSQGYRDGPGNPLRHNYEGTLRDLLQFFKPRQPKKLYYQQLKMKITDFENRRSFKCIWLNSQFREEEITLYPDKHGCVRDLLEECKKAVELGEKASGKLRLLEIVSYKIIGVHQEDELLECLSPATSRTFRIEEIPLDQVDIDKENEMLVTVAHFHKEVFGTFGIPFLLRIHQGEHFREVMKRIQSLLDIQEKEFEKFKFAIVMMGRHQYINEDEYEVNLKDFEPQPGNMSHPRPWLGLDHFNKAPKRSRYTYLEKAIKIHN

Which “effect of a mutation on the interaction” value does the source give for K79R;K304R;K380R;K382R here?
The value was “disrupting interaction strength”.

Variants of: B1
Settings: with ubp7_human USP7, Q93009
Remark: another data set of the same source

With K79R;K304R;K380R;K382R as the variant, how does the “effect of a mutation on the interaction” value read?
Its value is “decreasing interaction strength”.

C96A;H99A was tested. Which “effect of a mutation on the interaction” value did it give?
The value was “with no effect”.

For C118A;H124A, which “effect of a mutation on the interaction” value is on record?
Its value is “with no effect”.
